Data as given in the supplement of paper PMC10567573.

B1: NETO1 (parent)
chain: KTSLLDQLTNTSGTVIGVTSCIVI

Variants of: B1
Test: protein stability index of a GFP-peptide fusion (GPS, HEK-293T) (PSI 1-6); higher = more stable
Settings: c terminus: a fixed tail appended
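Also: lentivirally expressed fusions sorted by FACS into six bins by GFP to DsRed ratio, PSI derived from sequencing read proportions per bin multiplied by bin number.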

Protein stability index: each site, then its substitutions
T9: G 2.29, H 2.95, C 3.21, R 2.21, I 2.33, N 3.29, F 2.37, V 2.63, A 2.1, S 2.72
T19: K 2.97, G 3, E 2.68, V 2.91, I 2.2, P 1.91, M 2.5, S 3.29, H 4.49, W 2.06, N 3.28, Y 2.79, C 2.73
S20: D 2.83, L 2.79, M 2.89, Y 2.8, Q 2.53, T 2.37, P 2.98, A 3.66, H 2.97, N 3.04, R 4.13, K 3.19, I 3.08
K1: M 3.4, L 2.67, H 2.11, W 3.48, I 2.82, Y 2.37, Q 2.81, S 3, E 3.07
I16: W 2.03, Y 2.12, M 2.62, P 2.76, K 3.1, V 2.48, E 2.85, F 3.68, R 2.79, C 3.8, L 2.98, S 3.79
Q7: L 3.27, M 2.37, T 2.05, V 3.45, E 2.27, P 2.88, R 1.64, N 3.77, A 2.92, C 2.94, I 2.08, W 2.18, G 3.62, H 4.35, K 2.87, D 3.75
D6: A 3.62, I 3.8, M 2.53, Y 3.38, L 2.92, C 4.27, T 3.2, S 2.52, H 3.23, W 3.03, K 1.98, G 2.31, V 2.61, N 2.37, E 3.74
L4: H 3.14, I 4.14, E 2.94, C 2.08, W 3.2, G 4.07, M 2.19, N 2.6, S 1.85, V 3.28, D 2.7, R 2.34, Q 3.64, K 2.57, A 2.65
T11: V 2.65, P 3.64, F 2.35, L 1.92, E 5.03, G 2.93, R 1.74, I 2.52, W 3.6, M 3.29, Q 2.81, A 3.75, D 3.42, K 3.11
V18: F 2.48, G 3.24, Y 3.56, K 3.8, M 3.92, L 3.12, R 2.23, I 2.84, T 2.93, D 2.55, H 2.95, E 2.2, C 1.92, S 3.67, A 3.38
T2: I 3.34, N 2.4, C 1.93, Q 2.94, E 2.12, S 2.57, A 3.1, D 3.94, V 2.68, R 3.11, Y 3.38
I22: N 1.72, D 2.39, C 3.54, A 2.12, Y 2.81, K 2.35, M 3.35, G 2.36, E 2.32, Q 2.15, T 3.07, F 2.56, H 2.1, L 2.08, R 1.87
S3: T 2.61, H 2.43, Y 3.56, V 2.39, P 2.58, D 2.46, A 3.59, M 3.37, C 3.27
